From paper PMC8498466

Substrate: NCCSC[C@H](N)C(=O)O
Assay: cells, lysate or membranes
Conditions: inside-out membrane vesicles energized with 0.25 mM ATP; 50 mM KCl, 10 mM MgSO4, valinomycin 0.25 uM; Thl 0.5-5 mM; Thl/H+ antiport (export direction)

B1: LysO (LysON-HA) (Escherichia coli K-12) (protein)
chain: MFSGLLIILVPLIVGYLIPLRQQAALKVINQLLSWMVYLILFFMGISLAFLDNLASNLLAILHYSAVSITVILLCNIAALMWLERGLPWRNHHQQEKLPSRIAMALESLKLCGVVVIGFAIGLSGLAFLQHATEASEYTLILLLFLVGIQLRNNGMTLKQIVLNRRGMIVAVVVVVSSLIGGLINAFILDLPINTALAMASGFGWYSLSGILLTESFGPVIGSAAFFNDLARELIAIMLIPGLIRRSRSTALGLCGATSMDFTLPVLQRTGGLDMVPAAIVHGFILSLLVPILIAFFSA
Km: 1.5 mM
